Patent US20190300590A1

Experiments:
[1] = biological target: IL23R_huFC (human) (UniProt Q5VWK5); test: Human IL23R/IL23 ELISA
Target sequence in this assay (Q5VWK5 24-353): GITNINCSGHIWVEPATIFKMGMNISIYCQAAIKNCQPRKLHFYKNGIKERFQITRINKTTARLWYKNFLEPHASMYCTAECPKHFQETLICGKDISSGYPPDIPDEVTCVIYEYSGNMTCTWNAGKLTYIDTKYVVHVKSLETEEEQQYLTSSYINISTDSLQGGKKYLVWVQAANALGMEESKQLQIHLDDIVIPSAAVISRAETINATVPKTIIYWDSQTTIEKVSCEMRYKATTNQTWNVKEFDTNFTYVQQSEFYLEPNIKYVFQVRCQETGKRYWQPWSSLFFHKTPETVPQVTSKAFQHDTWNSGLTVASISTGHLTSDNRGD

[2] = biological target: Rat IL-23R_huFC (rat); test: rat ELISA vs IL-23
[3] = biological target: IL-23R on human cells (IL-23R-expressing DB cells; human NK cells) (human) (UniProt Q5VWK5); test: cell-based or functional assay
[4] = biological target: IL23R_huFC (human) (UniProt Q5VWK5); test: IL23-IL23R competitive binding ELISA
Target sequence in this assay (Q5VWK5 24-353 limits assumed): as the sequence (Q5VWK5 24-353) above

Sequence of IL-23R on human cells (IL-23R-expressing DB cells; human NK cells) (human) (Q5VWK5 24-629): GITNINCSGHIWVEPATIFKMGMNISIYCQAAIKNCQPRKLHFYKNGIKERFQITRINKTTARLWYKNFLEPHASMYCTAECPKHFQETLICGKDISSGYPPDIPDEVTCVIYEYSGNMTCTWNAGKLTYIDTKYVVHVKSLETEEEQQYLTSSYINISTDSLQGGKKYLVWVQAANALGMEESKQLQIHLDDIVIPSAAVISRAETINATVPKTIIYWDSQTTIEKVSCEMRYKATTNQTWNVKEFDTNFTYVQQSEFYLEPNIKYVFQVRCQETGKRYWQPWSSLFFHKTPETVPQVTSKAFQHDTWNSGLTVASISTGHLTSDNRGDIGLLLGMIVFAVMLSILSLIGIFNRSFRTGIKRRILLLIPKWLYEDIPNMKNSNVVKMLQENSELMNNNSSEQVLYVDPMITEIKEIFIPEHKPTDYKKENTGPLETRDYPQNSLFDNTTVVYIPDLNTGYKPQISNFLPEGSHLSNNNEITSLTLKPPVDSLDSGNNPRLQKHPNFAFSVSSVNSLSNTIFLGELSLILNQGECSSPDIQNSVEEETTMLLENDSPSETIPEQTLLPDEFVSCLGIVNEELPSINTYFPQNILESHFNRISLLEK

| Substance | IC50 [1] [nM] | other results |
| --- | --- | --- |
| Ac-Cyclo-[[Abu]-QTWQC]-[Phe(4-2ae)]-[2-Nal]-[THP]-EDN-OH (peptide) | 10 to 100 | – |
| Ac-Cyclo-[[Abu]-QTWQC]-[Phe[4-(2-aminoethoxy)]]-[2-Nal]-[Acbc]-ENN-NH2 (peptide) | – | IC50 [2]: < 10 nM |
| Ac-Cyclo-[[Abu]-QTWQC]-[Phe[4-(2-aminoethoxy)]]-[2-Nal]-[Achc]-ENN-NH2 (peptide) | – | IC50 [2]: < 10 nM |
| Ac-Cyclo-[[Abu]-QTWQC]-[Phe[4-(2-aminoethoxy)]]-[2-Nal]-[Acvc]-ENN-NH2 (peptide) | – | IC50 [2]: < 10 nM |
| Ac-[D-Arg]-Cyclo-[Abu-ETWEC]-[Phe(4-2ae)]-[2-Nal]-[THP]-ENN-NH2 (peptide) | 1 to 10 | – |
| Ac-[D-Arg]-Cyclo-[[Abu]-ETWQC]-[Phe(4-2ae)]-[2-Nal]-[THP]-EDN-NH2 (peptide) | 10 to 100 | – |
| Ac-[D-Arg]-Cyclo-[[Abu]-ETWQC]-[Phe(4-2ae)]-[2-Nal]-[THP]-ENN-NH2 (peptide) | 1 to 10 | – |
| Ac-[D-Arg]-Cyclo-[[Abu]-ETWQC]-[Phe(4-2ae)]-[2-Nal]-[Tetrahydropyran-A]-END-NH2 (peptide) | 1 to 10 | – |
| Ac-[D-Arg]-Cyclo-[[Abu]-QTWEC]-[Phe(4-2ae)]-[2-Nal]-[THP]-EDN-NH2 (peptide) | 10 to 100 | – |
| Ac-[D-Arg]-Cyclo-[[Abu]-QTWEC]-[Phe(4-2ae)]-[2-Nal]-[THP]-END-NH2 (peptide) | 1 to 10 | – |
| Ac-[D-Arg]-Cyclo-[[Abu]-QTWEC]-[Phe(4-2ae)]-[2-Nal]-[THP]-ENN-NH2 (peptide) | 1 to 10 | – |
| Ac-[D-Arg]-Cyclo-[[Abu]-QTWEC]-[Phe(4-2ae)]-[2-Nal]-[THP]-ENN-OH (peptide) | 1 to 10 | – |
| Ac-[D-Arg]-Cyclo-[[Abu]-QTWOC]-[Phe(4-2ae)]-[2-Nal]-[THP]]-END-NH2 (peptide) | 1 to 10 | – |
| Ac-[D-Arg]-Cyclo-[[Abu]-QTWQC]-[Phe(4-2ae)]-[2-Nal]-[THP]-EDD-NH2 (peptide) | 10 to 100 | – |
| Ac-[D-Arg]-Cyclo-[[Abu]-QTWQC]-[Phe(4-2ae)]-[2-Nal]-[THP]-EDN-NH2 (peptide) | 10 to 100 | – |
| Ac-[D-Arg]-Cyclo-[[Abu]-QTWQC]-[Phe(4-2ae)]-[2-Nal]-[THP]-END-OH (peptide) | 10 to 100 | – |
| Ac-[D-Arg]-Cyclo-[[Abu]ETWQC]-[Phe(4-2ae)]-[2-Nal]-[THP]-ENN-OH (peptide) | 1 to 10 | – |
| Alexa488-PEG4 through [D-Arg]: [D-Arg]-Cyclo-[[Abu]-QTWQC]-[Phe(4-2ae)]-[2-Nal]-[THP]-ENN-NH2 (peptide) | – | pStat3 HTRF IC50 [3]: < 10 nM |
| [Ac-[Pen]-QTWQ-[Pen]-[Phe[4-(2-aminoethoxy)]-[2-Nal]-[Aib]-[Lys(Ac)]-NQ-NH2]2DIG (peptide) | – | IC50 [4]: 25 to 100 nM |
| [Ac-[Pen]-QTWQ-[Pen]-[Phe[4-(2-aminoethoxy)]-[2-Nal]-[Aib]-[Lys(Ac)]-NQ-NH2]2PEG25 (peptide) | – | IC50 [4]: 10 to 25 nM |
